Test results reported in paper PMC7025878.

Biological target: GluD1△851 (rat GluD1 receptor truncated C-terminally at residue 851) (rat)
Experiment: cryo-EM structure

Substance: GluD1△851 (rat GluD1 receptor truncated C-terminally at residue 851)
- stoichiometry N: 4
